Assay results as given in patent publication US20240270846A1 (published 2024).

Molecular target: T1, CD3 epsilon homodimer protein (UniProt P07766 23-126)
T1 construct: also called CD3 (CD3 epsilon)
Assay: SPR, CD3e homodimer on chip;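 further: surface plasmon resonance at 25 degrees C, antibodies flowed as analyte over CD3 epsilon homodimer amine-coupled to a CM4 chip, running buffer HBS-EP+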
Experimental: An appropriate amount of CD3 epsilon homodimer protein was immobilized onto Sensor chip CM4 (GE Healthcare Japan Corp.) by the amine coupling method. Then, the antibody having an appropriate concentration was injected thereto as an analyte and allowed to interact with the CD3 epsilon homodimer protein on the sensor chip. Then, the sensor chip was regenerated by the injection of 10 mmol/L glycine-HCl (pH 1.5). The assay was conducted at 25 degrees C., and HBS-EP+(GE Healthcare Japan Corp.) was used as a running buffer. […] Each parameter was calculated using Biacore T200 Evaluation Software (GE Healthcare Japan Corp.).
Specifically, when the amount of the GLS3000-containing antibody bound was defined as X and the amount of the L chain one-amino acid altered form bound was defined as Y, a value of Z (ratio of amounts bound)=Y/X was used.

T1 sequence (P07766 23-126): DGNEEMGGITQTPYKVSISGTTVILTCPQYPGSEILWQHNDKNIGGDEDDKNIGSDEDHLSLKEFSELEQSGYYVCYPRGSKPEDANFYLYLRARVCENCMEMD

Row | ratio of amounts bound (altered form / unaltered GLS3000 antibody) | Binder
1 | 0.34 | GLS3000 R29V one-arm antibody (H chain CE115HA000) (antibody, human IgG1, kappa, L234A L235A, N297A, name in Kabat numbering, one-arm antibody) heavy: QVQLVESGGGVVQPGRSLRLSCAASGFTFSNAWMHWVRQAPGKGLEWVAQIKAKSNNYATYYAESVKGRFTISRDDSKNSLYLQMNSLKTEDTAVYYCRYVHYGAYYGVDAWGQGTTVTVSSASTKGPSVFPLAPSSKSTSGGTAALGCLVKDYFPEPVTVSWNSGALTSGVHTFPAVLQSSGLYSLSSVVTVPSSSLGTQTYICNVNHKPSNTKVDKKVEPKSCDKTHTCPPCPAPEAAGGPSVFLFPPKPKDTLMISRTPEVTCVVVDVSHEDPEVKFNWYVDGVEVHNAKTKPREEQYASTYRVVSVLTVLHQDWLNGKEYKCKVSNKALPAPIEKTISKAKGQPREPQVYTLPPSRCELTKNQVSLSCAVKGFYPSDIAVEWESNGQPENNYKTTPPVLDSDGSFFLVSKLTVDKSRWQQGNVFSCSVMHEALHNHYTQKSLSLSPDYKDDDDK EPKSSDKTHTCPPCPAPELLGGPSVFLFPPKPKDTLMISRTPEVTCVVVDVSHEDPEVKFNWYVDGVEVHNAKTKPREEQYNSTYRVVSVLTVLHQDWLNGKEYKCKVSNKALPAPIEKTISKAKGQPREPQVCTLPPSRDELTKNQVSLWCLVKGFYPSDIAVEWESNGQPENNYKTTPPVLDSDGSFFLYSKLTVDKSRWQQGNVFSCSVMHEALHNRYTQKSLSLSP light: DIVMTQSPLSLPVTPGEPASISCRSSQSLVHSNVNTYLHWYQQKPGQAPRLLIYKVSNRFSGVPDRFSGSGSGTDFTLKISRVEAEDVGVYYCGQGTQVPYTFGQGTKLEIKRTVAAPSVFIFPPSDEQLKSGTASVVCLLNNFYPREAKVQWKVDNALQSGNSQESVTEQDSKDSTYSLSSTLTLSKADYEKHKVYACEVTHQGLSSPVTKSFNRGEC
2 | 0.69 | GLS3000 R29Y one-arm antibody (H chain CE115HA000) (antibody, human IgG1, kappa, L234A L235A, N297A, name in Kabat numbering, one-arm antibody) heavy: QVQLVESGGGVVQPGRSLRLSCAASGFTFSNAWMHWVRQAPGKGLEWVAQIKAKSNNYATYYAESVKGRFTISRDDSKNSLYLQMNSLKTEDTAVYYCRYVHYGAYYGVDAWGQGTTVTVSSASTKGPSVFPLAPSSKSTSGGTAALGCLVKDYFPEPVTVSWNSGALTSGVHTFPAVLQSSGLYSLSSVVTVPSSSLGTQTYICNVNHKPSNTKVDKKVEPKSCDKTHTCPPCPAPEAAGGPSVFLFPPKPKDTLMISRTPEVTCVVVDVSHEDPEVKFNWYVDGVEVHNAKTKPREEQYASTYRVVSVLTVLHQDWLNGKEYKCKVSNKALPAPIEKTISKAKGQPREPQVYTLPPSRCELTKNQVSLSCAVKGFYPSDIAVEWESNGQPENNYKTTPPVLDSDGSFFLVSKLTVDKSRWQQGNVFSCSVMHEALHNHYTQKSLSLSPDYKDDDDK EPKSSDKTHTCPPCPAPELLGGPSVFLFPPKPKDTLMISRTPEVTCVVVDVSHEDPEVKFNWYVDGVEVHNAKTKPREEQYNSTYRVVSVLTVLHQDWLNGKEYKCKVSNKALPAPIEKTISKAKGQPREPQVCTLPPSRDELTKNQVSLWCLVKGFYPSDIAVEWESNGQPENNYKTTPPVLDSDGSFFLYSKLTVDKSRWQQGNVFSCSVMHEALHNRYTQKSLSLSP light: DIVMTQSPLSLPVTPGEPASISCRSSQSLVHSNYNTYLHWYQQKPGQAPRLLIYKVSNRFSGVPDRFSGSGSGTDFTLKISRVEAEDVGVYYCGQGTQVPYTFGQGTKLEIKRTVAAPSVFIFPPSDEQLKSGTASVVCLLNNFYPREAKVQWKVDNALQSGNSQESVTEQDSKDSTYSLSSTLTLSKADYEKHKVYACEVTHQGLSSPVTKSFNRGEC
3 | 0.36 | GLS3000 R54D one-arm antibody (H chain CE115HA000) (antibody, human IgG1, kappa, L234A L235A, N297A, name in Kabat numbering, one-arm antibody) heavy: QVQLVESGGGVVQPGRSLRLSCAASGFTFSNAWMHWVRQAPGKGLEWVAQIKAKSNNYATYYAESVKGRFTISRDDSKNSLYLQMNSLKTEDTAVYYCRYVHYGAYYGVDAWGQGTTVTVSSASTKGPSVFPLAPSSKSTSGGTAALGCLVKDYFPEPVTVSWNSGALTSGVHTFPAVLQSSGLYSLSSVVTVPSSSLGTQTYICNVNHKPSNTKVDKKVEPKSCDKTHTCPPCPAPEAAGGPSVFLFPPKPKDTLMISRTPEVTCVVVDVSHEDPEVKFNWYVDGVEVHNAKTKPREEQYASTYRVVSVLTVLHQDWLNGKEYKCKVSNKALPAPIEKTISKAKGQPREPQVYTLPPSRCELTKNQVSLSCAVKGFYPSDIAVEWESNGQPENNYKTTPPVLDSDGSFFLVSKLTVDKSRWQQGNVFSCSVMHEALHNHYTQKSLSLSPDYKDDDDK EPKSSDKTHTCPPCPAPELLGGPSVFLFPPKPKDTLMISRTPEVTCVVVDVSHEDPEVKFNWYVDGVEVHNAKTKPREEQYNSTYRVVSVLTVLHQDWLNGKEYKCKVSNKALPAPIEKTISKAKGQPREPQVCTLPPSRDELTKNQVSLWCLVKGFYPSDIAVEWESNGQPENNYKTTPPVLDSDGSFFLYSKLTVDKSRWQQGNVFSCSVMHEALHNRYTQKSLSLSP light: DIVMTQSPLSLPVTPGEPASISCRSSQSLVHSNRNTYLHWYQQKPGQAPRLLIYKVSNDFSGVPDRFSGSGSGTDFTLKISRVEAEDVGVYYCGQGTQVPYTFGQGTKLEIKRTVAAPSVFIFPPSDEQLKSGTASVVCLLNNFYPREAKVQWKVDNALQSGNSQESVTEQDSKDSTYSLSSTLTLSKADYEKHKVYACEVTHQGLSSPVTKSFNRGEC
4 | 0.69 | GLS3000 R54A one-arm antibody (H chain CE115HA000) (antibody, human IgG1, kappa, L234A L235A, N297A, name in Kabat numbering, one-arm antibody) heavy: QVQLVESGGGVVQPGRSLRLSCAASGFTFSNAWMHWVRQAPGKGLEWVAQIKAKSNNYATYYAESVKGRFTISRDDSKNSLYLQMNSLKTEDTAVYYCRYVHYGAYYGVDAWGQGTTVTVSSASTKGPSVFPLAPSSKSTSGGTAALGCLVKDYFPEPVTVSWNSGALTSGVHTFPAVLQSSGLYSLSSVVTVPSSSLGTQTYICNVNHKPSNTKVDKKVEPKSCDKTHTCPPCPAPEAAGGPSVFLFPPKPKDTLMISRTPEVTCVVVDVSHEDPEVKFNWYVDGVEVHNAKTKPREEQYASTYRVVSVLTVLHQDWLNGKEYKCKVSNKALPAPIEKTISKAKGQPREPQVYTLPPSRCELTKNQVSLSCAVKGFYPSDIAVEWESNGQPENNYKTTPPVLDSDGSFFLVSKLTVDKSRWQQGNVFSCSVMHEALHNHYTQKSLSLSPDYKDDDDK EPKSSDKTHTCPPCPAPELLGGPSVFLFPPKPKDTLMISRTPEVTCVVVDVSHEDPEVKFNWYVDGVEVHNAKTKPREEQYNSTYRVVSVLTVLHQDWLNGKEYKCKVSNKALPAPIEKTISKAKGQPREPQVCTLPPSRDELTKNQVSLWCLVKGFYPSDIAVEWESNGQPENNYKTTPPVLDSDGSFFLYSKLTVDKSRWQQGNVFSCSVMHEALHNRYTQKSLSLSP light: DIVMTQSPLSLPVTPGEPASISCRSSQSLVHSNRNTYLHWYQQKPGQAPRLLIYKVSNAFSGVPDRFSGSGSGTDFTLKISRVEAEDVGVYYCGQGTQVPYTFGQGTKLEIKRTVAAPSVFIFPPSDEQLKSGTASVVCLLNNFYPREAKVQWKVDNALQSGNSQESVTEQDSKDSTYSLSSTLTLSKADYEKHKVYACEVTHQGLSSPVTKSFNRGEC
